{
  "source": "patent US20170369592A1",
  "about": "“NOVEL ANTI-FIBROBLAST ACTIVATION PROTEIN (FAP) ANTIBODIES AND USES DERIVED THEREOF” (Mabimmune Diagnostics AG, priority 2015, published 2017)",
  "molecules": {"B1": {"name": "NI-206.82C2: recombinant human memory B cell-derived monoclonal anti-FAP IgG1 antibody, variable regions in FIG. 1A, FAP inhibitory (antibody, V domains shown)", "VH": "QVQLQQSGPGLVKPSQTLSLTCAISGDSVSSNSVTWNWIRQSPSRGLEWLGRTYYRSKWYNDYAVSVKGRITINPDTSKNQFYLQLKSVTPEDAAVYYCARDSSILYGDYWGQGTLVTVSS", "VL": "QAVLTQPSSLSASPGASASLTCTLPSGINVGTYRIFWFQQKPGSPPQYLLSYKSDSDNHQGSGVPSRFSGSKDASANAGILLISGLQSEDEADYYCMIWHSSAWVFGGGTKLTVL"}},
  "key": {"[1]": {"molecular_target": "T1, FAP from human plasma (Homo sapiens, UniProt Q12884)", "T1 construct": "from tissue; host or cells: human blood plasma", "T1 sequence (Q12884 24-760 limits assumed)": "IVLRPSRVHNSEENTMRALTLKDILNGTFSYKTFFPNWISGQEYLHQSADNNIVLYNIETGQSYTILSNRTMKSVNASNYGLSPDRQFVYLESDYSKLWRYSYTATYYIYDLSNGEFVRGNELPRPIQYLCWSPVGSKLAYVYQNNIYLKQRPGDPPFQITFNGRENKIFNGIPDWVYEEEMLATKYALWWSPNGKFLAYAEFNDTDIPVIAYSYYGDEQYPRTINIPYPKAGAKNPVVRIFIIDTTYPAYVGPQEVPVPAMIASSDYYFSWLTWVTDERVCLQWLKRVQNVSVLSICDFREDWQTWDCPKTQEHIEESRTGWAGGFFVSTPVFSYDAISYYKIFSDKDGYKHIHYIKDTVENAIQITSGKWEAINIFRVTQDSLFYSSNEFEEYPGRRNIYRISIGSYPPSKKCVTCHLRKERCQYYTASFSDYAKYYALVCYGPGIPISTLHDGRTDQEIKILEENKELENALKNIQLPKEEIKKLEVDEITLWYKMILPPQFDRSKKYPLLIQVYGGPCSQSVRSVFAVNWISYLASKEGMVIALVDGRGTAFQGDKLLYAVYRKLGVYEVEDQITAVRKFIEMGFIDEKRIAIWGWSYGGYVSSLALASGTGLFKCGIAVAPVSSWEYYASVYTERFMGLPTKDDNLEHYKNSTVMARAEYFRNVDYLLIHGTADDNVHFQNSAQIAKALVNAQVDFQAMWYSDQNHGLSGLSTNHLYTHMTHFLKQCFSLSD", "assay": "Immunoprecipitation of FAP from human plasma, α2AP-AMC cleavage in supernatant", "assay_type": "biochemical", "conditions": "compared to plasma before immunoprecipitation", "protocol": "100 μL of PureProteome G Magnetic Beads (Millipore LSKMAGG02) were suspended in 500 μL of 25 mM TRIS, 0.15M NaCl, and 0.1% Tween 20. Human plasma was diluted 1:5 in PBS to an end volume of 125 μL, separated into four tubes, and incubated for 30 min at RT with rotation. Beads were then collected with a magnetic stand, and the pre-cleared supernatant was transferred to a new tube containing magnetic beads coated with 82C2, 43A11, or 3A1. Antibody-conjugated beads were incubated with the plasma dilution overnight at 4° C. while rotating. Beads were then collected with a magnetic stand and the supernatant was removed of analysis of α2AP-AMC cleavage activity. To determine α2AP-AMC activity in the supernatants, a half area black 96 well plate was blocked with sterile filtered 5% BSA at 37° C. for 1h. Then 40 μL of PBS was added to all the wells, 5 μL of the supernatant solutions to the appropriate wells, and 5 μL of α2AP-AMC solution in methanol was added for a final assay concentration of 10 μM. The fluorescence intensity (cleaved AMC) was measured at 360 nm excitation and 460 nm emission every 3 min over a total time of 30 min and the reaction velocity was calculated using Graphpad Prism 6 software."}, "[2]": {"molecular_target": "T2, rhFAP (Homo sapiens, UniProt Q12884)", "T2 construct": "purchased Sino Biologicals 10464-H07H", "T2 sequence (Q12884 26-760 limits assumed)": "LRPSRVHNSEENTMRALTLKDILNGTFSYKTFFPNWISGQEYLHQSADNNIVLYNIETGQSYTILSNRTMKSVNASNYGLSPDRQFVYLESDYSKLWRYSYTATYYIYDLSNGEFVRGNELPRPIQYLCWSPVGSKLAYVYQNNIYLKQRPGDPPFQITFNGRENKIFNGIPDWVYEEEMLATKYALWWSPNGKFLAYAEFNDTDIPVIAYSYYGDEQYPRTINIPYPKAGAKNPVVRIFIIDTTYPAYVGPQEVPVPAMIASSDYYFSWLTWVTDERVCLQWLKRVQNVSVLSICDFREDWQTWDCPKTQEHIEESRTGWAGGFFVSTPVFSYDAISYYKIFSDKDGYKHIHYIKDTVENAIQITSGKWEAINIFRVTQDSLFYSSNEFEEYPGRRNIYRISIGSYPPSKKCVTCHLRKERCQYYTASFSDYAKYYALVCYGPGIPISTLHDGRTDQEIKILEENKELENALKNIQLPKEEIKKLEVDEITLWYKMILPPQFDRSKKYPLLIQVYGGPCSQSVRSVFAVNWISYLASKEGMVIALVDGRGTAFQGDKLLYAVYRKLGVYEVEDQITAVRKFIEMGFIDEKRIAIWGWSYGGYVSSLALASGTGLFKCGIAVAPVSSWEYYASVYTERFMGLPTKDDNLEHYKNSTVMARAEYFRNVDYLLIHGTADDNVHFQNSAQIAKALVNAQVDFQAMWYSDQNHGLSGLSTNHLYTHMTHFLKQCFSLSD", "assay": "Mechanism of inhibition of rhuFAP-mediated PEP (Z-Gly-Pro-AMC) cleavage", "assay_type": "biochemical", "conditions": "0, 10, 100, 1000 nM antibody, 20-100 μM Z-Gly-Pro-AMC, Lineweaver-Burk plot", "protocol": "A black flat bottom standard 96-well ELISA plate was blocked for 1 hr at 37° C. using sterile blocking buffer: 5% bovine serum albumin (BSA) in phosphate buffered saline (PBS). 10 μL of recombinant human FAP solution: 0.4 nM recombinant human FAP (Sino Biologicals, 10464-H07H), in 225 mM Sodium phosphate buffer, pH 7.4) was added to each well. Then, 80 μL of NI-206.82C2 at the indicated concentrations in PBS were added to the wells incubated for 1 hr at 37° C. Then, 10 μL of fluorogenic substrate solution (Z-Gly-Pro-AMC in 40% methanol and 60% 25 […]) was added to each well. The fluorescence intensity was measured at 360 nm excitation and 460 nm emission every 3 min over a total reading time of 2 hr."}},
  "data": [
    {"molecule": "B1", "values": [
      {"measurement": "rate of FAP substrate alpha 2 anti-plasmin (α2AP-AMC) cleavage in plasma after immunoprecipitation", "setting": "[1]", "result": "significantly reduces"},
      {"measurement": "mechanism of inhibition of FAP-mediated PEP cleavage", "setting": "[2]", "result": "non-competitive inhibitor"}
    ]}
  ]
}
